Laboratory results: patent US12331106B2, “Anti-angiopoietin-2 antibodies that induce Tie2 activation” (Institute for Basic Science, priority 2018, dated 2025)

What was measured:
[1] = system: downstream signaling of the Tie2 receptor (Akt phosphorylation) in HUVECs; experiment: Akt phosphorylation in HUVECs by humanized anti-Ang2 antibodies (immunoblot); format: cell-based, human; details: hAng2 1 μg/ml, 30 min, antibody 0.5 μg/ml, maintained until 50 μg/ml
Protocol: To investigate whether the humanized anti-Ang2 antibodies induce the downstream signaling of the Tie2 receptor in endothelial cells, HUVECs (LONZA™) were treated with human Ang2 protein together with humanized anti-Ang2 antibody. Then, the level of Akt phosphorylation, the main downstream signaling protein of Tie2 receptor was measured by immunoblotting. To compare the degree of Akt activation, cells were treated with full-length hAng2 (R&D® Systems) alone or antibody alone in the experiment.
Specifically, HUVEC cells (1×10^5 cells/ml) were cultured in EGM-2 (LONZA™) at 37° C. in 60 mm culture dish. Cells of 90% confluency were incubated with EBM-2 (LONZA™) for 4 hrs. The serum-starved HUVECs were treated with the mixture of anti-Ang2 antibody and hAng2 protein (1 μg/ml, R&D® Systems), and further incubated for 30 min. The cells were washed with cold PBS, treated with lysis buffer, and lysed at 4° C. for 20 min. Then, the cell lysates were prepared by centrifugation at 13000 rpm for 15 min. 5× SDS sample buffer was added to the cell lysate and the mixture was boiled at 95° C. for 5 min. Then, the mixture was subjected to SDS-PAGE and subsequent Western blotting.
To investigate the phosphorylation of Akt, the membrane was blocked with 5% skim milk-containing TBST for 1 hr at RT, and incubated with anti-phospho-Akt antibody (S473) at 4° C. for about 8 hrs. […]

[2] = system: choroidal neovascularization (CNV) / choriocapillaris; experiment: Laser-induced CNV model, OCTA: CNV volume and choriocapillary regeneration (avascular space); format: in vivo, mice; details: for reduction of the avascular space: 5 μg intravitreal at 7 days, change from baseline
Protocol: To determine the effect of 2C8H11 in CNV regression and choriocapillary regeneration after establishment of CNV, Fc, VEGF-Trap, control antibody or 2C8H11 (5 μg each) was given intravitreally to the mice by the Nanoliter 2000 micro-injector (World Precision Instruments) at 7 days after laser photocoagulation. Intra-vital optical coherence tomography angiography (OCTA) was performed at 6, 14, 21, and 35 days after laser photocoagulation (FIG. 14A). The retinochoroidal layers were imaged using a prototype high-speed swept-source optical coherence tomography (OCT) system, utilizing a custom ring cavity wavelength-swept laser centered at 1048 nm with an A-scan rate of 230 kHz. OCT images were collected in a 1.7 mm×1.7 mm field of view within the retino-choroidal layer to monitor regeneration of choroidal vasculatures at the site of laser photocoagulation after intravitreal injection of reagents. […] Then, by using automatic layer flattening and segmentation algorithms, cross-sectional OCT angiograms were flattened to RPE, and en face OCT angiograms were generated by separate projection of each flattened cross-sectional OCT angiogram in three depth ranges: inner retinal, outer retinal and choroidal layers. The outer plexiform layer and Bruch's membrane were defined as the boundaries separating inner retinal, outer retinal, and choroidal layers. The density of retina and choroid vessel was automatically calculated as the proportion of measured area occupied by flowing blood vessels defined as pixels having decorrelation values above the threshold level. Avascular pixels were detected from the en face OCT angiogram representing choroidal layer by means of the image processing toolbox of MATLAB® (Math Works). Then the total volume of the avascular space surrounding the laser injury site was calculated by summing the number of avascular pixels multiplied by the volume of one pixel. In order to analyze the changing complexion of avascular space volume, serially measured values in each eye were transformed into percentage change from baseline value. […] Overall, these findings indicate that both 2C8H11 and […] promotes regeneration of the choriocapillaris, while VEGF-Trap leads to choriocapillary regression in the laser-induced CNV model.

[3] = system: Tie2 receptor clustering / FOXO1 translocation in HUVECs; experiment: Tie2 clustering and FOXO1 translocation in HUVECs (immunofluorescence); format: cell-based, human
Protocol: Tie2 clustering at cell-cell junction area and FOXO1 translocation from nucleus to cytosol by anti-Ang2 antibodies were examined in HUVECs by immunofluorescence. Specifically, HUVECs were seeded on 8 well slide chamber (Lab-Tek™ II) and maintained in EGM-2 medium for 2-3 days. At 100% confluence, the cells were serum starved with EBM-2 medium for 4 hrs and then treated with 1 μg/ml anti-Ang2 antibodies together with 1 μg/ml of hAng2 for 30 min. Thereafter, the cells were fixed with 4% formaldehyde in PBS at room temperature (RT) for 10 min, permeabilized with 0.1% TRITON™ X-100 (non-ionic polyoxyethylene surfactant) in PBS, blocked with 1% BSA in PBS at RT for 60 min, and incubated with primary antibodies at RT for 1 hr. The primary antibodies for hTie2, FOXO1, and Human Fc were used. The cells were then incubated with secondary antibodies (Invitrogen) in the dark at RT for 1 hr and mounted with VECTASHIELD® mounting medium with DAPI (Vector Labs, antifade mounting media optimized for immunofluorescence applications). Images were taken with a laser scanning confocal microscope (LSM880, Carl Zeiss).
2C8H11-induced Tie2 clustering and FOXO1 translocation was examined in a time-course study (from 10 min to 240 min). […] 6-4: Inhibition of Vascular Permeability by Humanized Anti-Ang2 Antibodies

[4] = system: tumor vessels of LLC tumor; experiment: Tumor vessel perfusion (lectin) and hypoxia (Hypoxyprobe) in LLC tumors; format: in vivo, C57BL/6 mice; details: compared with Fc or Fc+Cpt
Protocol: To analyze the functionality of tumor vessels after treatment with 2C8H11, vessel perfusability and hypoxia status were evaluated. Before harvesting tumor mass, the mice were intravenously injected with 100 μl of DyLight™ 488-Lectin (Vector laboratory) and intraperitoneally injected with 60 mg/kg of Pimonidazole-HCl (HYPOXYPROBE™+) dissolved in PBS for 30 min before sacrifice. The mice were perfusion-fixed with 4% PFA. We obtained frozen sections from the tumor mass, which were stained with hamster anti-CD31 antibody (1:200, Millipore®) and 4.3.11.3 mouse Pacific blue-Mab (1:50, HYPOXYPROBE™+) in PBS. The sections were imaged using LSM880 confocal microscope (Zeiss), and the obtained images were analyzed using ImageJ software (http://rsb.info.nih.gov/ij) to quantify Lectin+area/CD31+area and HYPOXYPROBE™+area.
Furthermore, hypoxia, as indicated by HYPOXYPROBE™+area, was decreased in tumors treated with 2C8H11 or 2C8H11+Cpt by 72%, when compared with tumors treated with Fc or Fc+Cpt (FIG. 11C).

B1: 2C8H11: humanized anti-Ang2 human IgG1 antibody from mouse 2C8; VH SEQ ID NO: 55, VL SEQ ID NO: 56 (antibody, V domains shown)
VH: QVQLVQSGAEVKKPGASVKVSCKASGYTFTSYWMHWVRQAPGQGLEWMGMIDPSDSETRLNQKFKDRVTMTRDTSTSTVYMELSSLRSEDTAVYYCARRFYYGSDWYFDVWGQGTLVTVSS
VL: DIQLTQSPSFLSASVGDRVTITCKASQDVGTAVAWYQQKPGKAPKLLIYWASTRHTGVPSRFSGSGSGTEFTLTISSLQPEDFATYYCQQYSSYPLTFGQGTKVEIK
modifications: human IgG1 constant regions; VH; VL
[1]
  Akt phosphorylation: increased markedly
[2]; 5 μg intravitreal at 7 days after laser photocoagulation
  CNV volume in outer retinas (OCTA): markedly reduced CNV volume
[2]; 14 days after laser photocoagulation
  reduction of the avascular space: 30.1%
[2]; 21 days after laser photocoagulation
  reduction of the avascular space: 36.4%
[2]; 35 days after laser photocoagulation
  reduction of the avascular space: 37.0%
[3]; HUVECs, 30 min, anti-human Fc staining
  co-localization of antibody with Tie2 receptor: co-localized with clustered Tie2 receptor at cell-cell contact and endocytosed Tie2 receptor in cytosol
[3]; HUVECs, 30 min, antibodies 1 μg/ml with hAng2 1 μg/ml
  Tie2 translocation/clustering to cell-cell contact: induced Tie2 translocation/clustering to cell-cell contact
[3]; HUVECs, 30 min, compared to serum-starved control
  FOXO1 translocation from nucleus to cytosol: markedly disappeared in nucleus
[3]; time-course, with hAng2, 120 min and 240 min
  Tie2 receptor / Tie2 clustering at cell-cell contact at late time points: sustained even after 240 min treatment
[3]; time-course, with hAng2, up to 240 min
  co-localized antibody with Tie2 at cell-cell contact: maintained until 240 min
[4]
  hypoxia decrease (HYPOXYPROBE+ area): 72%
  increase in perfusion (Lectin+ area/CD31+ area): approximately 3 fold
